Results reported in patent US5889151A (priority 1989, dated 1999).

B1: Human gamma IFN: human gamma interferon, recognized by a different receptor (protein, UniProt P01579 24-161, looked up)
Interferon gamma: QDPYVKEAENLKKYFNAGHSDVADNGTLFLGILKNWKEESDRKIMQSQIVSFYFKLFKNFKDDQSIQKSVETIKEDMNVKFFNSNKKKRDDFEKLTNYSVTDLNVQRKAIHELIQVMAELSPAAKTGKRKRSQMLFRG

Experiments:
[1] = system: rhinoviruses; conditions: clinical trials; cited from earlier work
[2] = system: coronavirus; conditions: infected with a coronavirus; 37% with placebo; cited from earlier work
[3] = system: human Wish cells; assay type: cell-based
[4] = system: mouse parental BTG cells; assay type: cell-based
[5] = system: transfected 10B H7 clone; assay type: cell-based, mouse

Molecule	protection of volunteers infected with different rhinoviruses [1]	volunteers developing the symptoms of a cold [2]	Antiviral activities of interferon preparations tested on WISH [3]	Antiviral activities of interferon preparations tested on BTG [4]	antiviral activity (in words) [4]	Antiviral activities of interferon preparations tested on 10BH7 [5]	antiviral activity (in words) [5]
alpha interferon	100%	6%					
B1			20 × 10^6 units/ml	< 1 × 10^3 units/ml	no antiviral activity	< 1 × 10^3 units/ml	no antiviral activity
